# Assay results taken from CN101643510A.
# B1: 重组抗CD25人源化单克隆抗体的抗体 5G7 (antibody, V domains shown)
# VH: EVKLEESGGGLEQPGGSMKLSCVASGFTFSNYWMNWVRQSPDKGLEWVAQIRWKSDNYATHYAESVKGRFSISRDDSKSSVYLQMNNLRVEDSGIYYCTGGGSYVAHWGQGTLVTVSA
# VL: DIVLTQSPASLAVSLGQSVTVSCRASESVENYGTTLMQWYQQKPGQPPKLLIYGVSNVESGVPARFSGSGSGTDFTLNIHPVEEDDIAMYFCQQSRKVPWTFGGGTKLEIKR
# Columns and labels:
# [1] = biological target: CD25人源化单抗 (Zenapax, ROCHE公司产品); experiment: sandwich ELISA, compared with the commercial anti-kappa capture antibody
# [2] = biological target: CD25人源化单抗 (Zenapax, ROCHE公司产品); experiment: sandwich ELISA, 5G7 coated at 1 μg/ml, Zenapax titrated, HRP anti-human IgG Fc gamma detection
binder,measurement,setting,value
B1,灵敏度 fold against 市售抗体,[1],100 fold
same,灵敏度 (detection sensitivity),[2],0.01 ng/mL
